Results from patent US20200216522A1 (DENALI THERAPEUTICS, published 2020).

T1: Peptide_043 (human)
T1 peptide: RTPSLPTPPTREPKK

T2: Peptide_005 (human)
T2 peptide: GDRKDQGGYTMHQDQ

T3: Peptide_038 (human)
T3 peptide: GEPPKSGDRSGYSSP

T4: Peptide_040 (human)
T4 peptide: GYSSPGSPGTPGSRS

T5: Peptide_021 (human)
T5 peptide: TTAEEAGIGDTPSLE

T6: Peptide_072 (human)
T6 peptide: SLDNITHVPGGGNKK

T7: Peptide_045 (human)
T7 peptide: REPKKVAVVRTPPKS

T8: Peptide_053 (human)
T8 peptide: GSTENLKHQPGGGKV

T9: Peptide_078 (human)
T9 peptide: TDHGAEIVYKSPVVS

T10: Peptide_041 (human)
T10 peptide: GSPGTPGSRSRTPSL

T11: Peptide_016 (human)
T11 peptide: TAPLVDEGAPGKQAA

T12: Peptide_058 (human)
T12 peptide: NVQSKCGSKDNIKHV

T13: process-control peptide
T13 construct: array control, not a Tau peptide
T13 peptide: GGSGGGSDYKDDDDK

T14: Peptide_013 (human)
T14 peptide: SETSDAKSTPTAEDV

T15: Peptide_036 (human)
T15 peptide: PPAPKTPPSSGEPPK

T16: Peptide_063 (human)
T16 peptide: KPVDLSKVTSKCGSL

T17: Peptide_062 (human)
T17 peptide: VQIVYKPVDLSKVTS

T18: Peptide_001 (human)
T18 peptide: MAEPRQEFEVMEDHA

T19: Peptide_055 (human)
T19 peptide: GGGKVQIINKKLDLS

T20: Peptide_074 (human)
T20 peptide: GGNKKIETHKLTFRE

T21: Peptide_067 (human)
T21 peptide: KPGGGQVEVKSEKLD

T22: Peptide_024 (human)
T22 peptide: DEAAGHVTQARMVSK

T23: Peptide_059 (human)
T23 peptide: CGSKDNIKHVPGGGS

T24: Peptide_080 (human)
T24 peptide: SPVVSGDTSPRHLSN

T25: Peptide_065 (human)
T25 peptide: KCGSLGNIHHKPGGG

T26: Peptide_071 (human)
T26 peptide: QSKIGSLDNITHVPG

T27: Peptide_002 (human)
T27 peptide: QEFEVMEDHAGTYGL


Columns and labels:
Peptide_043 = molecular target: T1, Peptide_043; test: peptide array
Procedure: (§1) Chimeric IgG antibodies were diluted to a concentration of 5 μg/mL in 3% bovine serum albumin in Tris-buffered saline (10 mM Tris, pH 7.5, 150 mM NaCl) supplemented with 0.05% Tween®20 (3% BSA-TBST). Diluted antibodies were allowed to bind to peptides printed onto slides for 2 hours at room temperature as described in the PepStar™ user manual (JPT Technologies). Following extensive washing (5×5 minutes with TBST), slides were incubated with secondary antibodies goat anti-human IgG, Alexa Fluor 568 conjugate, 1 μg/mL in 3% BSA-TBST) for 1 hour at room temperature. After extensive washing, (5×5 minutes with TBST, then 5×5 minutes with ultrapure water), slides were dried overnight and imaged using an Opera Phenix™ system in the 568 nm channel. Images were aligned to peptide array definition files using Galviewer software obtained from JPT Technologies and ImageJ software with control human IgG serving as landmarks.
(§2) Full-length human Tau (encoded by the microtubule-associated protein Tau isoform 2 gene (MAPT), amino acid sequence NCBI Reference Sequence No. NP_005901.2, SEQ ID NO: 1, variant designation “2N4R”) was divided into 15 amino acid peptides, offset by 5 amino acids (overlapping by 10 amino acids). Peptides were synthesized and covalently attached to silica slides in triplicate with a spot size of 0.5 mm (obtained from JPT Technologies, Berlin, Germany). Antibodies muIgG were diluted to a concentration of 30 μg/mL in 3% bovine serum albumin in Tris-buffered saline (10 mM Tris, pH 7.5, 150 mM NaCl) supplemented with 0.05% Tween® 20 (3% BSA-TBST). Diluted antibodies were allowed to bind to peptides printed onto slides for 2 hours at room temperature as described in the Pepstar™ user manual (JPT Technologies). Following extensive washing (5×5 min TBST), slides were incubated with secondary antibodies (donkey anti-mouse IgG, Alexafluor 647 conjugate, 5 μg/mL in 3% BSA-TBST) for 1 hour at room temperature. After extensive washing, (5×5 minutes TBST, 5×5 minutes ultrapure water), slides were dried under a stream of nitrogen and imaged on the Opera Phenix in the 647 nm channel. Images were aligned to peptide array definition file using Galviewer software obtained from JPT Technologies and ImageJ software with control mouse IgG serving as landmarks.

Peptide_005 = molecular target: T2, Peptide_005; test: peptide array
Procedure: as §1, §2

Peptide_038 = molecular target: T3, Peptide_038; test: peptide array
Procedure: as §1, §2

Peptide_040 = molecular target: T4, Peptide_040; test: peptide array
Procedure: as §1, §2

Peptide_021 = molecular target: T5, Peptide_021; test: peptide array
Procedure: as §1, §2

Peptide_072 = molecular target: T6, Peptide_072; test: peptide array
Procedure: as §1, §2

Peptide_045 = molecular target: T7, Peptide_045; test: peptide array
Procedure: as §1, §2

Peptide_053 = molecular target: T8, Peptide_053; test: peptide array
Procedure: as §1, §2

Peptide_078 = molecular target: T9, Peptide_078; test: peptide array
Procedure: as §1, §2

Peptide_041 = molecular target: T10, Peptide_041; test: peptide array
Procedure: as §1, §2

Peptide_016 = molecular target: T11, Peptide_016; test: peptide array
Procedure: as §1, §2

Peptide_058 = molecular target: T12, Peptide_058; test: peptide array
Procedure: as §1, §2

process-control peptide = molecular target: T13, process-control peptide; test: peptide array
Procedure: as §1, §2

Peptide_013 = molecular target: T14, Peptide_013; test: peptide array
Procedure: as §1, §2

Peptide_036 = molecular target: T15, Peptide_036; test: peptide array
Procedure: as §1, §2

Peptide_063 = molecular target: T16, Peptide_063; test: peptide array
Procedure: as §1, §2

Peptide_062 = molecular target: T17, Peptide_062; test: peptide array
Procedure: as §1, §2

Peptide_001 = molecular target: T18, Peptide_001; test: peptide array
Procedure: as §1, §2

Peptide_055 = molecular target: T19, Peptide_055; test: peptide array
Procedure: as §1, §2

Peptide_074 = molecular target: T20, Peptide_074; test: peptide array
Procedure: as §1, §2

Peptide_067 = molecular target: T21, Peptide_067; test: peptide array
Procedure: as §1, §2

Peptide_024 = molecular target: T22, Peptide_024; test: peptide array
Procedure: as §1, §2

Peptide_059 = molecular target: T23, Peptide_059; test: peptide array
Procedure: as §1, §2

Peptide_080 = molecular target: T24, Peptide_080; test: peptide array
Procedure: as §1, §2

Peptide_065 = molecular target: T25, Peptide_065; test: peptide array
Procedure: as §1, §2

Peptide_071 = molecular target: T26, Peptide_071; test: peptide array
Procedure: as §1, §2

Peptide_002 = molecular target: T27, Peptide_002; test: peptide array
Procedure: as §1, §2

[1] = molecular target: T28, full-length human Tau (Tau441; 2N4R), recombinant (human, UniProt P10636 1-758); test: Octet binning on biotin-r-Tau; competitor 1A5
T28 construct: made in E. coli, His6-Smt3 tag removed; biotinylated through amines for Octet and phage work; also called r-Tau; recombinant Tau
Procedure: (§3) Epitope binning assays were performed using a FortéBio® Octet® RED384 instrument using FortéBio® Streptavidin biosensors. Biotinylated recombinant Tau was diluted to a concentration of 2 μg/mL in kinetic buffer (obtained from FortéBio®) and captured onto individual biosensors for 1 minute. A baseline was then established for 1 minute in kinetic buffer. The loaded biosensors were dipped into 10 μg/mL of the first chimeric IgG antibody until signal saturation, followed by dipping into 1 μg/mL of a second antibody. The binding for the second antibody was normalized to its total binding in the absence of the first antibody.

[2] = molecular target: T28, full-length human Tau (Tau441; 2N4R), …; test: Octet binning on biotin-r-Tau; row antibody Ab107 (anti-BACE1 control)
Procedure: as §3

T28 sequence (P10636 other isoform, or with tags, fused parts or gaps limits assumed): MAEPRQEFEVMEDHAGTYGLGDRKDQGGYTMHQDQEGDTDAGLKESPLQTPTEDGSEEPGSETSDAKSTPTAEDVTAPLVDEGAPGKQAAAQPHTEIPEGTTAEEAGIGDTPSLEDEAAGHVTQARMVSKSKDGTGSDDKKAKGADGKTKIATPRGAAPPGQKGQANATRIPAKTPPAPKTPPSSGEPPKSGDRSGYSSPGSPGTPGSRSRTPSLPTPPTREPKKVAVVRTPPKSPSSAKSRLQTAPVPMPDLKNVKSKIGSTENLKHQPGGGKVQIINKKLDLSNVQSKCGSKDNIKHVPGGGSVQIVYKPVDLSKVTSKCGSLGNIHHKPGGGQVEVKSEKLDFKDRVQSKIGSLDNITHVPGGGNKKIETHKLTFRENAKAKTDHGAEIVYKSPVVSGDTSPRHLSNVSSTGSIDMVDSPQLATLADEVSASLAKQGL

| Binder | binding result (Peptide_043) | binding result (Peptide_005) | binding result (Peptide_038) | binding result (Peptide_040) | binding result (Peptide_021) | binding result (Peptide_072) | binding result (Peptide_045) | binding result (Peptide_053) | binding result (Peptide_078) | binding result (Peptide_041) | binding result (Peptide_016) | binding result (Peptide_058) | binding result (process-control peptide) | binding result (Peptide_013) | binding result (Peptide_036) | binding result (Peptide_063) | binding result (Peptide_062) | binding result (Peptide_001) | binding result (Peptide_055) | binding result (Peptide_074) | further results |
| --- | --- | --- | --- | --- | --- | --- | --- | --- | --- | --- | --- | --- | --- | --- | --- | --- | --- | --- | --- | --- | --- |
| chimeric IgG clone 1G7 (antibody, V domains shown, mouse-human chimeric IgG from HEK293) VH: EVQLQQSGAEVVRPGASVKLSCTTSGFNIKDSLMHWLKQRPEQGLEWIGWIDPEDGETKYAPKFQDKATITADTSSNTAYLQLSSLTSGDTAIYYCARRDWEGPWGQGTLVTVSA VL: not shown | no binding (tested: 5 ug/mL) | no binding (tested: 5 ug/mL) | no binding (tested: 5 ug/mL) | no binding (tested: 5 ug/mL) | no binding (tested: 5 ug/mL) | no binding (tested: 5 ug/mL) | no binding (tested: 5 ug/mL) | no binding (tested: 5 ug/mL) | no binding (tested: 5 ug/mL) | no binding (tested: 5 ug/mL) | no binding (tested: 5 ug/mL) | no binding (tested: 5 ug/mL) | no binding (tested: 5 ug/mL) | no binding (tested: 5 ug/mL) | no binding (tested: 5 ug/mL) | no binding (tested: 5 ug/mL) | no binding (tested: 5 ug/mL) | no binding (tested: 5 ug/mL) | no binding (tested: 5 ug/mL) | no binding (tested: 5 ug/mL) | binding result (Peptide_067): no binding (tested: 5 ug/mL); binding result (Peptide_024): no binding (tested: 5 ug/mL); binding result (Peptide_059): no binding (tested: 5 ug/mL); binding result (Peptide_080): no binding (tested: 5 ug/mL); binding result (Peptide_065): no binding (tested: 5 ug/mL); binding result (Peptide_071): no binding (tested: 5 ug/mL); binding result (Peptide_002): no binding (tested: 5 ug/mL); normalized binding of second antibody [1]: -0.04; normalized binding of second antibody [2]: 1 |
| chimeric IgG clone 1A5 (antibody, V domains shown, mouse-human chimeric IgG from HEK293) VH: EVQLQQSGAELVRPGASVKLSCTASGFNIKDSLIHWVKQRPEQGLEWIGWIDPEDGETKYAPKFQDKATKTADTSSNTAYLQLSSLTSEDTAIYYCASGEWDYWGQGTSVTVSS VL: not shown | no binding (tested: 5 ug/mL) | no binding (tested: 5 ug/mL) | no binding (tested: 5 ug/mL) | no binding (tested: 5 ug/mL) | no binding (tested: 5 ug/mL) | no binding (tested: 5 ug/mL) | no binding (tested: 5 ug/mL) | no binding (tested: 5 ug/mL) | no binding (tested: 5 ug/mL) | no binding (tested: 5 ug/mL) | no binding (tested: 5 ug/mL) | no binding (tested: 5 ug/mL) | no binding (tested: 5 ug/mL) | no binding (tested: 5 ug/mL) | no binding (tested: 5 ug/mL) | no binding (tested: 5 ug/mL) | no binding (tested: 5 ug/mL) | no binding (tested: 5 ug/mL) | no binding (tested: 5 ug/mL) | no binding (tested: 5 ug/mL) | binding result (Peptide_067): no binding (tested: 5 ug/mL); binding result (Peptide_024): no binding (tested: 5 ug/mL); binding result (Peptide_059): no binding (tested: 5 ug/mL); binding result (Peptide_080): no binding (tested: 5 ug/mL); binding result (Peptide_065): no binding (tested: 5 ug/mL); binding result (Peptide_071): no binding (tested: 5 ug/mL); binding result (Peptide_002): no binding (tested: 5 ug/mL); normalized binding of second antibody [1]: -0.13; normalized binding of second antibody [2]: 1 |
